Measurements from patent publication US9096835B2, “DNA polymerase” (Medical Research Council, priority 2003, dated 2015).
Entries after “also recorded” stand apart in the source; their conditions may differ.

Assays:
Format in all cases: biochemical
[1] = test system: primer-template duplex with matched or mismatched 3′ terminus; assay: Steady-state extension kinetics, gel-based assay; details: incorporated base is dCTP
Procedure: Kinetic parameters were determined using a gel-based assay essentially as described (16). Primers 15, 16, 17 (3′ base=G, C, A respectively) were ^32P-labeled and annealed to one of template strands 18, 19, 20 (template base=C, G, A respectively) or 21 (template base C different context). Duplex substrates were used at 50 nM final concentration in 1× Taq buffer with various concentrations of enzyme and dNTP. Reactions were carried out at 60° C. for times whereby <20% of primer-template was utilized at the highest concentration of dNTP.
Extension and incorporation kinetics of M1 and M4 for a selection of mismatches were measured using a gel-based steady-state kinetic assay (Goodman) (Tables 1 & 2). M1 and M4 respectively extend a C•C mispair 390 and 75-fold more efficiently than wtTaq. […] The gain in extension efficiency derives predominantly from increased relative Vmax values for the mutant polymerases, while Km for nucleotide substrates remains largely unchanged. For most DNA polymerases the relative efficiency of extending a given mispair (f0ext) is similar to the relative efficiency of forming it (finc) (Goodman 1993, Goodman 1990, Washington 2001). Indeed, M1 and M4 respectively incorporate dCTP opposite template base C 206- and 29-fold more efficiently than wtTaq (Table 2).

[2] = test system: primers with 3′ transversion mismatches; assay: Mismatch extension PCR assay; details: G•A, C•C, G•G mismatched primers
Procedure: (§1) A PCR assay was used to screen and rank clones. Briefly, clones were normalized for activity in PCR with matched primers 3, 4 and activity with mismatched primers 1 and 2 (1 μM each) determined at minimal cycle number (15-25 cycles). Extension capability for different mismatches was determined by the same assay using mismatch primers 2 (C•C mismatch), 5 (A•A mismatch), 6 (G•G mismatch), 7 (G•A mismatch) with matched primer 3 or primer 1 (A•G mismatch) with matched primer 4. Incorporation of unnatural substrates in 50 cycle PCR was carried out using standard conditions and 50 μM […] dNTPs (Promega) or 50 μM FITC-12-dATP (Perkin-Elmer), Rhodamine-5-dUTP (Perkin-Elmer) or Biotin-16-dUTP (Roche) with equivalent amounts of the other 3 dNTPs (all 50 μM). Long PCR was carried out using a two-step cycling protocol as described (22) 94° C. for 2 minutes, followed by 20 cycles of (94° C. 15 sec, 68° C. 30 min) using 5 ng of phage λ DNA (New England Biolabs) template and either primers 9, 10, 11 with primer 12 or primer 13 with primers 10, 14.

[3] = PCR with all four dNTPs replaced by αS dNTPs; details: 50 cycle PCR, 50 μM αS dNTPs
Procedure: as §1

PCR with Biotin-16-dUTP = details: 50 cycle PCR, complete replacement
Procedure: as §1

[4] = test system: primer-template DNA substrates; assay: Processivity primer extension assay with and without trap DNA; details: for bound polymerase that extended primers to the end of the template: in the presence of trap DNA (single DNA binding event); for termination probability: positions 6 and 7
Procedure: Processivity was measured using a primer extension assay the presence and absence of trap DNA. Termination probabilities were calculated according to the method of Kokoska et al.
Oligonucleotide primer 32 (5′-GCGGTGTAGAGACGAGTGCGGAG-3′) (SEQ ID NO: 117) was ^32P-labelled and annealed to the template 33 (5′-CTCTCACAAGCAGCCAGGCAAGCTCCGCACTCGTCTCTACACCGCTCCGC-3′ (SEQ ID NO: 118)) (at a primer/template ratio of molar 1/1.5). wtTaq (0.0025 nM; 0.025 nM; 0.25 nM), M1(0.05 nM; 0.5 nM; 5 nM), and M4 (0.05 nM; 0.5 nM; 5 nM) were preincubated with the primer-template DNA substrates (10 nM) in 10 mM Tris-HCl at pH 9.0, 5 mM MgCl2, 50 mM KCl, 0.1% Triton X 100 at 25° C. for 15 min. Reactions were initiated by addition of 100 μM dNTPs with or without trap DNA (1000-fold excess of unlabeled primer-templates). Reactions were performed at 60° C. for 2 min. […] Thus, in the presence of trap DNA, all DNA synthesis resulted from a single DNA binding event. Gel band intensities were calculated using a Phosphoimager and ImageQuant (both Molecular Dynamics) software. Percentage of polymerase molecules, which extended primers to the end of the template was calculated using the formula: In×100%/(I1+I2+ . . . +In), where In is the intensity of the band at position 22 or 23; I1, I2 . . . is the intensity of the band at position 1, 2 . . . . Termination probabilities (τ) were calculated according to the method of Kokoska et al^1, whereby t at a particular template position was calculated as the intensity of the band at this position divided by the sum of the intensity of this band and the band intensities of all longer products.

[5] = 3′-terminal base pair A · A (template base: 3′ primer base)
[6] = 3′-terminal base pair A · G (template base: 3′ primer base)
[7] = 3′-terminal base pair C · C (template base: 3′ primer base)
[8] = 3′-terminal base pair C · G (template base: 3′ primer base), matched
[9] = 3′-terminal base pair G · A (template base: 3′ primer base)
[10] = 3′-terminal base pair G · G (template base: 3′ primer base)

| Molecule | Vmax [1, 5] [% Min^−1] | Km ([1]; 3′-terminal base pair A · A) [µM] | Ratio of fext, fext (mutant polymerase)/fext (wtTaq) ([1]; 3′-terminal base pair A · A) | fext, f (mismatched 3′terminus)/f (matched terminus) ([1]; 3′-terminal base pair A · A) | Vmax [1, 6] [% Min^−1] | Km ([1]; 3′-terminal base pair A · G) [µM] | Ratio of fext, fext (mutant polymerase)/fext (wtTaq) ([1]; 3′-terminal base pair A · G) | fext, f (mismatched 3′terminus)/f (matched terminus) ([1]; 3′-terminal base pair A · G) | Vmax [1, 7] [% Min^−1] | Km ([1]; 3′-terminal base pair C · C) [µM] | Ratio of fext, fext (mutant polymerase)/fext (wtTaq) ([1]; 3′-terminal base pair C · C) | fext, f (mismatched 3′terminus)/f (matched terminus) ([1]; 3′-terminal base pair C · C) | Km [1, 8] [µM] | Vmax [1, 8] [% Min^−1] | Vmax [1, 9] [% Min^−1] | Km ([1]; 3′-terminal base pair G · A) [µM] | Ratio of fext, fext (mutant polymerase)/fext (wtTaq) ([1]; 3′-terminal base pair G · A) | fext, f (mismatched 3′terminus)/f (matched terminus) ([1]; 3′-terminal base pair G · A) | Vmax [1, 10] [% Min^−1] | Km ([1]; 3′-terminal base pair G · G) [µM] | further results |
| --- | --- | --- | --- | --- | --- | --- | --- | --- | --- | --- | --- | --- | --- | --- | --- | --- | --- | --- | --- | --- | --- |
| wtTaq: Thermus aquaticus (Taq) wild type DNA polymerase [reference compound] | 1.7 | 27.3 | 1.0 | 6.7 × 10^−7 | 28.0 | 45.2 | 1.0 | 2.1 × 10^−7 | 0.2 | 39.9 | 1.0 | 5.9 × 10^−8 | 0.016 | 1477.0 | 1.6 | 32.8 | 1.0 | 5.4 × 10^−7 | 20.4 | 174 | Ratio of fext, fext (mutant polymerase)/fext (wtTaq) ([1]; 3′-terminal base pair G · G): 1.0; fext, f (mismatched 3′terminus)/f (matched terminus) ([1]; 3′-terminal base pair G · G): 1.3 × 10^−6; extension of 3′ transversion mismatches in PCR [2]: unable to extend; PCR amplification with all four αS dNTPs [3]: failed to generate any amplification products; PCR amplification with Biotin-16-dUTP (PCR with Biotin-16-dUTP): unable to generate any amplification products; bound polymerase that extended primers to the end of the template [4]: 13%; termination probability [4]: 5% |
| M1: Taq mutant G84A, D144G, K314R, E520G, F598L, A608V, E742G; SEQ ID NO: 1 (protein, Mutant Thermus aquaticus DNA polymerase) MRGMLPLFEPKGRVLLVDGHHLAYRTFHALKGLTTSRGEPVQAVYGFAKSLLKALKEDGDAVIVVFDAKAPSFRHEAYGGYKAARAPTPEDFPRQLALIKELVDLLGLARLEVPGYEADDVLASLAKKAEKEGYEVRILTADKGLYQLLSDRIHVLHPEGYLITPAWLWEKYGLRPDQWADYRALTGDESDNLPGVKGIGEKTARKLLEEWGSLEALLKNLDRLKPAIREKILAHMDDLKLSWDLAKVRTDLPLEVDFAKRREPDRERLRAFLERLEFGSLLHEFGLLESPKALEEAPWPPPEGAFVGFVLSRREPMWADLLALAAAAGGRVHRAPEPYKALRDLKEARGLLAKDLSVLALREGLGLPPGDDPMLLAYLLDPSNTTPEGVARRYGGEWTEEAGERAALSERLFANLWGRLEGEERLLWLYREVERPLSAVLAHMEATGVRLDVAYLRALSLEVAEEIARLEAEVFRLAGHPFNLNSRDQLERVLFDELGLPAIGKTEKTGKRSTSAAVLGALREAHPIVEKILQYRELTKLKSTYIDPLPDLIHPRTGRLHTRFNQTATATGRLSSSDPNLQNIPVRTPLGQRIRRAFIAEEGWLLVVLDYSQIELRVLAHLSGDENLIRVFQEGRDIHTETASWMFGVPREAVDPLMRRAAKTINFGVLYGMSAHRLSQELAIPYEEAQAFIERYFQSFPKVRAWIEKTLEEGRRRGYVETLFGRRRYVPDLEARVKSVRGAAERMAFNMPVQGTAADLMKLAMVKLFPRLEEMGARMLLQVHDELVLEAPKERAEAVARLAKEVMEGVYPLAVPLEVEVGIGEDWLSAKE | 1.5 | 40.9 | 3.6 | 2.4 × 10^−6 | 44.6 | 280 | 6.2 | 1.3 × 10^−6 | 9.2 | 25.8 | 390 | 2.3 × 10^−5 | 0.02 | 308.0 | 2.4 | 22 | 13.3 | 7.2 × 10^−6 | 29.6 | 67 | Ratio of fext, fext (mutant polymerase)/fext (wtTaq) ([1]; 3′-terminal base pair G · G): 22.5; fext, f (mismatched 3′terminus)/f (matched terminus) ([1]; 3′-terminal base pair G · G): 2.9 × 10^−5; extension of 3′ transversion mismatches in PCR [2]: greatly increased ability to extend; also recorded: generate amplification products; size of PCR products with all four αS dNTPs [3]: up to 2 kbp; size of amplification products fully labelled with Biotin-16-dUTP (PCR with Biotin-16-dUTP): 2.7 kb; processivity compared with wtTaq ([4]; even at the lowest enzyme concentrations): processivity equal (or higher) than wtTaq; bound polymerase that extended primers to the end of the template [4]: 28%; termination probability [4]: 1% |
